“And” between values parts separate entries of the source, which are not always exact repeats. Identical values can stand only once.
T1: recombinant human TNFR2 antigen (Kangdai, batch number A100114U) (human, UniProt P20333 23-257)
T1 construct: also called hTNFR2; TNFR2-FC (Shanghai Saijin Biopharmaceutical Co., Ltd., Qiangke, catalog number A100114U); not shown: Fc part of the bought TNFR2-FC
T1 sequence (looked up): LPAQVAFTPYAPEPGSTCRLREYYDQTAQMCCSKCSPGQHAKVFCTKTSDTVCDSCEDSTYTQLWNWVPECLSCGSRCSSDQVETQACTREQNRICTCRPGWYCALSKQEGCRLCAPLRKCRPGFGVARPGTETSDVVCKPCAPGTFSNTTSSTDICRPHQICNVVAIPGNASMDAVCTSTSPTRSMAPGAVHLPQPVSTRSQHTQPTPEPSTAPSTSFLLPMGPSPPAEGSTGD

T2: recombinant mouse TNFR2 (mTNFR2) (Sino Biological, 50128-M08H) (mouse, UniProt P25119 23-258)
T2 sequence (looked up): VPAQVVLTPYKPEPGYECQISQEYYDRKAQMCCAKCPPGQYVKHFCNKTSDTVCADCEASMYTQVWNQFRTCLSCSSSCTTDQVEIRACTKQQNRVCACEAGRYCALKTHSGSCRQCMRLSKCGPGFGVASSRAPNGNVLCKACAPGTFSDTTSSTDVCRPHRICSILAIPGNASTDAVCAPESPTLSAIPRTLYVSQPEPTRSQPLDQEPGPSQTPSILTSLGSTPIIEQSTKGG

T3: recombinant cynomolgus monkey TNFR2 (Cyno. TNFR2) (Sino Biological, 90102-C021) (cynomolgus monkey, UniProt A0A2K5VET2 132-366)
T3 sequence: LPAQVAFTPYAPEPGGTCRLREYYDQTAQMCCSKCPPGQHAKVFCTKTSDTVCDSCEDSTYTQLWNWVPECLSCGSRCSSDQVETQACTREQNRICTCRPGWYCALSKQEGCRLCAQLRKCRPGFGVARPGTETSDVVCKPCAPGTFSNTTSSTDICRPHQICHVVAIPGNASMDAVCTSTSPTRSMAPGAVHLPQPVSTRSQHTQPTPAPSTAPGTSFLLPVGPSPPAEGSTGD

T4: TNFR2-His (Sino Biological, 10417-H08H, NP_001057.1 Met1-Asp257, with multi-histidine tag expressed on … (human, UniProt P20333 23-257))
T4 construct: range 1-257; Bought protein; also called recombinant human TNFR2 protein; TNFR2-His antigen; not shown: C-terminal multi-histidine tag
T4 sequence (looked up): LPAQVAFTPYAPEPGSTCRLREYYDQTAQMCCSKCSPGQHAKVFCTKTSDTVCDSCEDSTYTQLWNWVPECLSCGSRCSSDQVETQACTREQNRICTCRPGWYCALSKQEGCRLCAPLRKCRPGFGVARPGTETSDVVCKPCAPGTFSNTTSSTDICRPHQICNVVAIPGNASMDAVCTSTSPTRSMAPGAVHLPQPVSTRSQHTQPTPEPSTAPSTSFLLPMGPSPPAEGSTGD

T5: human TNFR2 on the cell membrane (human, UniProt P20333 23-461)
T5 construct: whole, on cells; One molecule for all cell formats; also called TNFR2-CHO cells; CHO-TNFR2
T5 sequence (looked up): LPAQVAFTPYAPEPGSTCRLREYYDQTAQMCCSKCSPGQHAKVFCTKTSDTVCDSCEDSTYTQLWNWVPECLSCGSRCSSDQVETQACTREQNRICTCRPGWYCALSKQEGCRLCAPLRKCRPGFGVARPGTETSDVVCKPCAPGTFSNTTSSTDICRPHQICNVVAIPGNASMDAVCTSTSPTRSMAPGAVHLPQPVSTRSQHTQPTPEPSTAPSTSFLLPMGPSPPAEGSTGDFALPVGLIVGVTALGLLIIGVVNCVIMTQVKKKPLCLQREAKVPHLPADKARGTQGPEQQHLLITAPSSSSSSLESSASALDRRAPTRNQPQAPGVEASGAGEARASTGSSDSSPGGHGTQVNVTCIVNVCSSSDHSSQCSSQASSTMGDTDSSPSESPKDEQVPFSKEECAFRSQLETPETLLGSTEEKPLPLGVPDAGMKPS


Key:
[1] = target: T1, recombinant human TNFR2 antigen …; experiment: ELISA, coated recombinant human TNFR2
Protocol: (§1) After TMB development, the detection was performed using microplate reader: dual wavelength 450 nm/655 nm detection, and results were calculated by OD₄₅₀-OD₆₅₅.

[2] = target: T2, recombinant mouse TNFR2 (mTNFR2) (Sino …); experiment: ELISA, coated mouse TNFR2
Protocol: as §1
(§2) Using the same method as above, the TNFR2 antigens of cynomolgus monkey and mouse (Sino Biological, 90102-C021 and 50128-M08H) were coated separately. The anti-human TNFR2 mouse monoclonal antibodies to be tested were gradient diluted, then added with the anti-mouse Fab segment secondary antibody (Jackson Immuno Research, 515-035-072), and TMB development was performed. ELISA was used to detect the binding of 8 strains of mouse monoclonal antibodies to recombinant mouse TNFR2 (mTNFR2) and cynomolgus monkey TNFR2 (Cyno. TNFR2).

[3] = target: T1, recombinant human TNFR2 antigen …; experiment: ELISA, plate coated with recombinant human TNFR2 antigen
Protocol: as §1

[4] = target: T3, recombinant cynomolgus monkey TNFR2 …; experiment: ELISA, plate coated with recombinant cynomolgus monkey TNFR2
Protocol: as §1, §2

[5] = target: T4, TNFR2-His (Sino Biological, 10417-H08H, …); experiment: ELISA, coated TNFR2-His
Summary of the method: (§3)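 ELISA on plates coated with recombinant human TNFR2 carrying a C-terminal His tag, then blocked. Serially diluted antibodies were incubated, followed by an enzyme-labelled anti-IgG secondary antibody. Plates were developed with TMB and read on a microplate reader. EC50 is reported from the dilution series.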

[6] = target: T4, TNFR2-His (Sino Biological, 10417-H08H, …); experiment: BLI, antibody captured on AHC probe, TNFR2-His in solution
Summary of the method: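 Kon, koff and Kd were derived from kinetic association measurements by bio-layer interferometry on an Octet in Basic Kinetics mode. Antibody-capture sensors held antibodies at 50 nM in Q buffer (10 mM PBS pH 7.4, 0.02% Tween 20, 0.2% BSA). These sensors were then placed in recombinant human TNFR2, diluted 2-fold in Q buffer from a top concentration of 100 nM.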

[7] = target: T5, human TNFR2 on the cell membrane; experiment: flow cytometry on CHO-TNFR2 cells
Summary of the method: (§4)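 Flow cytometry on CHO cells stably overexpressing human TNFR2, made by pcDNA3.4-TNFR2 transfection, drug selection and single-clone sorting. Cells in 96-deep-well plates were incubated with serially diluted antibodies, washed and stained with a fluorescent anti-IgG secondary antibody. Samples were read on a Beckman CytoFLEX. EC50 is reported from the dilution series.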

[8] = target: T4, TNFR2-His (Sino Biological, 10417-H08H, …); experiment: ELISA, plate coated with TNFR2-His
Summary of the method: as §3

[9] = target: T5, human TNFR2 on the cell membrane; experiment: flow cytometry, CHO-TNFR2 cells; CHO-TNFR2 cells
Summary of the method: as §4

[10] = target: T3, recombinant cynomolgus monkey TNFR2 …; experiment: ELISA, coated cynomolgus TNFR2
Protocol: as §1, §2

[11] = target: T5, human TNFR2 on the cell membrane; experiment: flow cytometry on TNFR2-CHO cells
Protocol: (§5) Purified anti-human TNFR2 mouse monoclonal antibodies were co-incubated with TNFR2 overexpressing CHO cell lines (obtained routinely as follows: PCDNA3.4-TNFR2 was transfected into CHO cells, and stable high expression TNFR2 cell lines were obtained through drug screening and monoclonal sorting), and then stained. The antibody binding intensity was analyzed by flow cytometry. The specific steps are as follows: TNFR2-CHO cells were counted, centrifuged, resuspended, then added to a 96-deep well plate, and the supernatant was discarded. The anti-TNFR2 antibodies to be tested were gradient diluted, added to the 96-deep well plate. […] The samples were detected using Beckman CytoFLEX.

[12] = target: T5, human TNFR2 on the cell membrane; experiment: flow cytometry, TNFR2-CHO cells
Protocol: as §5

Binder | EC50 [1] | binding result [2] | EC50 [3] | EC50 [4] | EC50 [5] | Kd [6] | koff [6] | kon [6] | EC50 [7] | EC50 [8] | EC50 [9] | EC50 [10] | EC50 [11] | EC50 [12]
anti-human TNFR2 mouse monoclonal antibody 13F5 (antibody, V domains shown) VH: QVQLQQSGAELVRPGTSVKMSCKASGYTFTNYWIGWTKQRPGHGLEWIGDIFPGGDFTNYNEKFKGKATLTADKSSSTAYLQFSSLTSEDSAIYYCSRRRFTTIVAPGFDYWGQGTTLTVSS VL: QLVLTQSSSASFSLGASAKLTCTLSSQHSMYTIEWYQQQPLKPPKFVMELKKDGSHSTGDGIPDRFSGSSSGADRYLNISNIQPEDEAIYICGVGDTIKEQFVYVFGGGTEVTVL | 0.0638 µg/mL | no binding | 0.428 nM | > 1 µg/mL and > 6.7 nM | – | – | – | – | – | – | – | – | – | –
11G2huVH3 + huVL2(P07268) (antibody, V domains shown, Humanized 11G2) VH: QVQLVQSGAEVKKPGASVKVSCKASGYTFITYDINWVRQATGQGLEWIGWIYPRDGNTQFNENFQGRVTMTRNTSISTAYMELSSLRSEDTAVYYCARGDRDYGYFDVWGQGTTVTVSS VL: DIQMTQSPSSLSASVGDRVTITCRASQDISNYLNWYQQKPGKAPKLLIYFKSKLHSGVPSRFSGSGSGTDFTLTISSLQPEDFATYYCQQGNTLPLTFGGGTKLEIK | – | – | – | – | 0.271 nM | 7.28 nM | 0.0022 s⁻¹ | 302000 M⁻¹ s⁻¹ | 0.0299 µg/mL | 0.0404 µg/mL | 0.2 nM | – | – | –
11G2huVH5 + huVL1(P07266) (antibody, V domains shown, Humanized 11G2) VH: QVQLVQSGAEVKKPGASVKVSCKASGYTFITYDINWVRQATGQGLEWIGWIYPRDGNTQYAQKFQGRVTMTRNTSISTAYMELSSLRSEDTAVYYCARGDRDYGYFDVWGQGTTVTVSS VL: DIQMTPSTSSLSASVGDRVTITCRASQDISNYLNWYQQKPGKAVKLLIYFKSKLHSGVPSRFSGSGSGTDFTLTISSLQPEDFATYYCQQGNTLPLTFGGGTKLELK | – | – | – | – | 0.094 nM | 7.29 nM | 0.00163 s⁻¹ | 223000 M⁻¹ s⁻¹ | 0.0014 µg/mL | 0.014 µg/mL | 0.01 nM | – | – | –
11G2huVH4 + huVL1(P07265) (antibody, V domains shown, Humanized 11G2) VH: QVQLVQSGAEVKKPGASVKVSCKASGYTFITYDINWVRQAPGQGLEWIGWIYPRDGNTQYAQKFQGRVTMTTDTSTSTAYMELRSLRSDDTAVYYCARGDRDYGYFDVWGQGTTVTVSS VL: DIQMTPSTSSLSASVGDRVTITCRASQDISNYLNWYQQKPGKAVKLLIYFKSKLHSGVPSRFSGSGSGTDFTLTISSLQPEDFATYYCQQGNTLPLTFGGGTKLELK | – | – | – | – | 0.286 nM | 9.76 nM | 0.00255 s⁻¹ | 261000 M⁻¹ s⁻¹ | 0.0256 µg/mL | 0.0427 µg/mL | 0.171 nM | – | – | –
anti-human TNFR2 mouse monoclonal antibody 12E12 (antibody, V domains shown) VH: EVQLQQSGAELVKPGASVKLSCTVSGFNIKDFYIHWVKQRPEQGLEWIGRVDPEDGNTEYAPNFQDRATMTTDTSSNTAYLQLSSLTSVDTAVYYCSTWDGFSYFDYWGLGTTLTVSS VL: QAVVTQESALTTSPGETVTLTCRSSTGPVTTNNYANWVQEKPDHLFTGLIGGTNDRAPGVPARFSGSLIGDKTALTITGTQTEDEAVYFCALWYRNHWVFGGGTKLTVL | 0.0707 µg/mL | no binding | 0.474 nM | 0.933 nM | – | – | – | – | – | – | – | 0.139 µg/mL | 0.986 nM | 0.147 µg/mL
anti-human TNFR2 mouse monoclonal antibody 29A1 (antibody, V domains shown) VH: QVQLQQSGAEVVRPGASVTLSCKASGYTFSDYEMHWVKQTPVHGLEWIGAIDPETGDTAYNQKFKDKARVTADKSSSTAYMELRSLTSEDSAVYYCTRDIHYYGSSLSYFDYWGQGTTLTVSS VL: DIVMTQSQKFMSTSVGDRVSVTCKASQNVGTNVAWYQQKPGQSPKVMIYSASYRYSGAPDRFTGSGSGTDFTLTVNNVQSEDLAEYFCQQYKTYPYTFGGGTKLEIE | 0.0255 µg/mL | no binding | 0.171 nM | 0.377 nM | – | – | – | – | – | – | – | 0.0562 µg/mL | 1.19 nM | 0.178 µg/mL
anti-human TNFR2 mouse monoclonal antibody 7F2 (antibody, V domains shown) VH: QVTLKESGPGILQPSQTLSLTCSFSGFSLNTFGLGVGWIRQPSGKGLEWLTHIWWNDDKYYNPALKSRLTISRDTSENLVFLKIANVDTADTATYYCARIEGLRRFDYWGQGTTLTVSS VL: DIQMTQSPSSLSASLGGKVTITCKTSQDINKFIAWYQHKPGKGPRLLIHYTSTLQPGIPSRFSGSGSGRDYSFSISDLEPEDIATYYCLQYANLWAFGGGTKLEIK | 0.0623 µg/mL | no binding | 0.418 nM | 0.795 nM | – | – | – | – | – | – | – | 0.119 µg/mL | 2.44 nM | 0.364 µg/mL
anti-human TNFR2 mouse monoclonal antibody 27F6 (antibody, V domains shown) VH: EVQLQQSGTVLARPGASVKMSCKTSGYTFTSYWMHWVKQRPGQGLEWIGTIYPGNSDTSYNQKFKGKAKLTAVTSASTAYMELNSLTNEDSAVFYCTRENLLLRSYFFDYWGQGTTLTVSS VL: DIVMTQSPASLAVSLGQRATISCKASQSVDYDGDSYLNWYQQKPGQPPKLLIYAASNLPSGIPARFSGSGSGTDFTLNIHPVEEEDAATYYCQQSNEDPRTFGGGTKLEIK | 0.0366 µg/mL | no binding | 0.245 nM | 0.506 nM | – | – | – | – | – | – | – | 0.0756 µg/mL | 1.25 nM | 0.187 µg/mL
